Experimental data from patent US20030235860A1, “Interactions between AR, ER, TR2, and TR4” (priority 1999, published 2003).

Experiments:
Type in all cases: cell-based
[1] = molecular target: T1, TR4 (Homo sapiens, UniProt P49116); assay: TR4-mediated transactivation reporter assay
T1 construct: full-length AR and TR4 in eukaryotic expression vectors (pSG5AR and pCMXTR4) were co-transfected; expressed in transfected cells; host or cells: H1299, HepG2
T1 sequence (P49116 1-615 isoform P49116-2 N175S/W419R/A428G/K503N/L504W/A613V): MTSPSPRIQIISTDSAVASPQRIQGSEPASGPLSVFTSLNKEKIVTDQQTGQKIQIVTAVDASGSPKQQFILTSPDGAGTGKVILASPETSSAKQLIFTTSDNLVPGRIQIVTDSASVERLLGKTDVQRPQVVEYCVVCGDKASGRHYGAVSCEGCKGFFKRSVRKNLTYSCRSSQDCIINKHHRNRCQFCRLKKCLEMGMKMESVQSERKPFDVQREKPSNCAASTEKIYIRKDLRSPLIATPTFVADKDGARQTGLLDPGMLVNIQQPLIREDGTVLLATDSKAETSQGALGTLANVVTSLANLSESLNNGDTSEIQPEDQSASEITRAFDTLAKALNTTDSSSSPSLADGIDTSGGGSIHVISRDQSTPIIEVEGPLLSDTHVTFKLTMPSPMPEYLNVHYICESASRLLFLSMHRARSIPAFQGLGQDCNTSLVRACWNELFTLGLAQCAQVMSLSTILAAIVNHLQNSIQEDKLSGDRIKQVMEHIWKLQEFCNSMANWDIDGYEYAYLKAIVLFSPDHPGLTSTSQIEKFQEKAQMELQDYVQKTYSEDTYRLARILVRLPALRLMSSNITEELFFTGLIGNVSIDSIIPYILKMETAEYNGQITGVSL
Experimental: Cells were routinely maintained in DMEM with 10% heat-inactivated fetal bovine serum. The cells were transfected using a modified calcium phosphate precipitation method, Mizokami, & Chang, J: Biol. Chem. 269,25655-25659 (1994), or SuperFect (Qiagen). To normalize the transfection efficiency, the (3-galactosidase expression ver and pRL-TK were co-transfected in CAT assay and in Dual-luciferase reporter assay system (Promega), respectively.
More specifically, 500 ng of reporter plasmids were co-transfected(DR4-CAT and CNTFR-15-LUC) with 200 ng of pCMX-TR4 and increasing amounts of pCMV-AR (200, 600, and 1,200 ng), pSG5GR (1,200 ng), or pSG5 PR (1,200 ng) using the SuperFect transfection kit (Qiagen) (PCMV AR Mowszowicz et al., (1993) Molecular Endocrinology 7:861:869). […] Similar results were obtained when the DR4-TK-CAT reporter was replaced with DR1-CNTFR-15-LUC, another TR4 response element (FIG. 3A). Young, et al., J: Biol. Chem. 272,3109-3116 (1997).
Another TR4 potential target gene, which is located in the hepatitis B virus (HBV) enhancer II region (−34 to −7) containing a classic DR1 motif. Breidbart, et al., Pediatric Res. 34,300-302 (1993), was investigated. The reporter plasmid CpFL(4)-LUC, which contains the HBV core promoter (Cp) sequence located between −34 and −7 (nucleotide coordinates 1751 and 1778 derived from the Genbank database) was shown above in FIG. 3B. The arrows indicate the DRI motif in HBV core promoter. HepG2 cells were co-transfected with 1.5 μg CpFL(4)-LUC reporter and 0.5 μg pCMX-TR4, with increasing amounts of pCMV-AR (0.5, 2.5, and 5 μg) by modified calcium phosphate precipitation method. The relative reporter gene activities were compared to the CAT activities (or luciferase activities) with vector alone. To normalize the transfection efficiency, the β-galactosidase expression vector and pRL-TK were co-transfected in the CAT assay and in the Dual-luciferase reporter assay system (Promega), respectively.

[2] = molecular target: T2, GR (Homo sapiens, UniProt P04150); assay: GR-mediated transactivation (MMTV reporter)
T2 construct: expressed in transfected cells; host or cells: H1299, PC-3 (pSG5-GR)
T2 sequence (P04150 1-777): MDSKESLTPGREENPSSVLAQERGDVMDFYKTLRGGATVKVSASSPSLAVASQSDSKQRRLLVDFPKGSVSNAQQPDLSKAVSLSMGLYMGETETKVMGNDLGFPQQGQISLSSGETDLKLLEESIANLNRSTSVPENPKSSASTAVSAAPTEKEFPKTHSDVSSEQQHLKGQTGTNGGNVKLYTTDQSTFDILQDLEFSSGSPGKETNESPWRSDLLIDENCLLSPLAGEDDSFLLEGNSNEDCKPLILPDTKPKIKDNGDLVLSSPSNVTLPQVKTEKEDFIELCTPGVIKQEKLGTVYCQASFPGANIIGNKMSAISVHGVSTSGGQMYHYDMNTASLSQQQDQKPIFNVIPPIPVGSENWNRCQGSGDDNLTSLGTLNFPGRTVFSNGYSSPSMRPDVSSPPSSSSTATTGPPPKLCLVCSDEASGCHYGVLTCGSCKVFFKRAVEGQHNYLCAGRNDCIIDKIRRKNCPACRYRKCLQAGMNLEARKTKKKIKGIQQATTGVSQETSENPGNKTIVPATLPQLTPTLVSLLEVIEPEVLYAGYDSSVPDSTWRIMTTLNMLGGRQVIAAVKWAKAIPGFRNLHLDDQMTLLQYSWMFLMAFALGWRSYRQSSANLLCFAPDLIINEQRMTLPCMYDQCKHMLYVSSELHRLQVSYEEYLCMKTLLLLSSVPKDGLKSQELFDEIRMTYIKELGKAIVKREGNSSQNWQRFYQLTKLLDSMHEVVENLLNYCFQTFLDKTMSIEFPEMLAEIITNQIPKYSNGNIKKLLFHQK
Experimental: To eliminate the potential artificial effects caused by overexpression of exogenous ER, T47D cells were used as a model to test the TR2 suppression effect on the endogenous ER-mediated transactivation. T47D cells were transfected with 1 μg of ERE-CAT reporter plasmid together with increasing amounts of the TR2 expression plasmid. […] All of the cells also were transfected with a galactosidase expression plasmid, pCMV-β-gal to normalize the transfection efficiency. As expected, the TR2 can still repress the endogenous ER-mediated ERE-CAT activity (FIG. 8B). For a control, the potential suppression effect of the TR2 on other steroid receptors-mediated transactivation was also tested, such as PR or GR. H1299 cells were co-transfected with 1 μg of MMTV-CAT reporter plasmid and 1 μg of PR or GR expression plasmid together with increasing amounts of the TR2 expression vector. […] AU of the cells also were transfected with a β-galactosidase expression plasmid, pCMV-β-gal to normalize the transfection efficiency.
AR is known to be highly involved in prostate cancer progression, and both TR2 and AR are expressed in prostate cancer, therefore the TR2 effect on AR transactivation activity was analyzed.

[3] = system: pS2; assay: Northern blot of pS2 in MCF-7-TR4 cells; conditions: 2 μg/ml Dox, E2

## AR: androgen receptor, SEQ ID NO:31
[1]; H1299 cells, absence or presence of DHT
  CAT activity induced by pCMXTR4 (DR4-TK-CAT; similar with DR1-CNTFR-I5-LUC): repressed significantly
[1]; HepG2 cells, increasing pCMV-AR
  TR4-induced CpFL(4)-LUC activity (HBV core promoter): significantly decreased
[1]; Table 5
  Activity TR4 (effect of regulator on transcription activity): Down

B1: TR2: human testicular orphan nuclear receptor 2, 603 amino acids (protein, UniProt P13056 1-603, looked up)
chain: MATIEEIAHQIIEQQMGEIVTEQQTGQKIQIVTALDHNTQGKQFILTNHDGSTPSKVILARQDSTPGKVFLTTPDAAGVNQLFFTTPDLSAQHLQLLTDNSPDQGPNKVFDLCVVCGDKASGRHYGAVTCEGCKGFFKRSIRKNLVYSCRGSKDCIINKHHRNRCQYCRLQRCIAFGMKQDSVQCERKPIEVSREKSSNCAASTEKIYIRKDLRSPLTATPTFVTDSESTRSTGLLDSGMFMNIHPSGVKTESAVLMTSDKAESCQGDLSTLANVVTSLANLGKTKDLSQNSNEMSMIESLSNDDTSLCEFQEMQTNGDVSRAFDTLAKALNPGESTACQSSVAGMEGSVHLITGDSSINYTEKEGPLLSDSHVAFRLTMPSPMPEYLNVHYIGESASRLLFLSMHWALSIPSFQALGQENSISLVKAYWNELFTLGLAQCWQVMNVATILATFVNCLHNSLQQDKMSTERRKLLMEHIFKLQEFCNSMVKLCIDGYEYAYLKAIVLFSPDHPSLENMEQIEKFQEKAYVEFQDYITKTYPDDTYRLSRLLLRLPALRLMNATITEELFFKGLIGNIRIDSVIPHILKMEPADYNSQIIGHSI
modifications: full-length
notes: human testicular orphan nuclear receptor 2, 603 amino acids
[2]; H1299 cells, 10^−8 M glucocorticoid, increasing TR2
  GR-mediated transactivation (MMTV-CAT): little effect
[2]; PC-3 cells, 10 nM dexamethasone, pCMV-TR2
  GR-mediated transactivation (MMTV-CAT): less suppression effect
[2]; T47D cells, Example 2
  GR-mediated transcription (MMTV-CAT): marginal effect

B2: TR4: human testicular orphan nuclear receptor 4, SEQ ID NO:16; expressed from plasmid or in vitro translated (protein)
chain: MTSPSPRIQIISTDSAVASPQRIQGSEPASGPLSVFTSLNKEKIVTDQQTGQKIQIVTAVDASGSPKQQFILTSPDGAGTGKVILASPETSSAKQLIFTTSDNLVPGRIQIVTDSASVERLLGKTDVQRPQVVEYCVVCGDKASGRHYGAVSCEGCKGFFKRSVRKNLTYSCRSSQDCIINKHHRNRCQFCRLKKCLEMGMKMESVQSERKPFDVQREKPSNCAASTEKIYIRKDLRSPLIATPTFVADKDGARQTGLLDPGMLVNIQQPLIREDGTVLLATDSKAETSQGALGTLANVVTSLANLSESLNNGDTSEIQPEDQSASEITRAFDTLAKALNTTDSSSSPSLADGIDTSGGGSIHVISRDQSTPIIEVEGPLLSDTHVTFKLTMPSPMPEYLNVHYICESASRLLFLSMHRARSIPAFQGLGQDCNTSLVRACWNELFTLGLAQCAQVMSLSTILAAIVNHLQNSIQEDKLSGDRIKQVMEHIWKLQEFCNSMANWDIDGYEYAYLKAIVLFSPDHPGLTSTSQIEKFQEKAQMELQDYVQKTYSEDTYRLARILVRLPALRLMSSNITEELFFTGLIGNVSIDSIIPYILKMETAEYNGQITGVSL
[3]
  Expression of ER endogenous target gene pS2: repress
